From paper PMC10978961, “Architecture and activation of human muscle phosphorylase kinase” (Nature Communications, 2024)

Target: the molecule itself
Assay: cryo-EM structure; inactive PhK holoenzyme, dephosphorylated, with 4 mM EGTA and excess calmodulin; 25 mM HEPES pH 6.8, 150 mM NaCl, 2 mM DTT; subunits co-expressed and purified as a complex

B1: human muscle phosphorylase kinase (PhK) β-subunit (natural protein, UniProt Q93100 1-1093, looked up)
chain: MAGAAGLTAEVSWKVLERRARTKRSGSVYEPLKSINLPRPDNETLWDKLDHYYRIVKSTLLLYQSPTTGLFPTKTCGGDQKAKIQDSLYCAAGAWALALAYRRIDDDKGRTHELEHSAIKCMRGILYCYMRQADKVQQFKQDPRPTTCLHSVFNVHTGDELLSYEEYGHLQINAVSLYLLYLVEMISSGLQIIYNTDEVSFIQNLVFCVERVYRVPDFGVWERGSKYNNGSTELHSSSVGLAKAALEAINGFNLFGNQGCSWSVIFVDLDAHNRNRQTLCSLLPRESRSHNTDAALLPCISYPAFALDDEVLFSQTLDKVVRKLKGKYGFKRFLRDGYRTSLEDPNRCYYKPAEIKLFDGIECEFPIFFLYMMIDGVFRGNPKQVQEYQDLLTPVLHHTTEGYPVVPKYYYVPADFVEYEKNNPGSQKRFPSNCGRDGKLFLWGQALYIIAKLLADELISPKDIDPVQRYVPLKDQRNVSMRFSNQGPLENDLVVHVALIAESQRLQVFLNTYGIQTQTPQQVEPIQIWPQQELVKAYLQLGINEKLGLSGRPDRPIGCLGTSKIYRILGKTVVCYPIIFDLSDFYMSQDVFLLIDDIKNALQFIKQYWKMHGRPLFLVLIREDNIRGSRFNPILDMLAALKKGIIGGVKVHVDRLQTLISGAVVEQLDFLRISDTEELPEFKSFEELEPPKHSKVKRQSSTPSAPELGQQPDVNISEWKDKPTHEILQKLNDCSCLASQAILLGILLKREGPNFITKEGTVSDHIERVYRRAGSQKLWLAVRYGAAFTQKFSSSIAPHITTFLVHGKQVTLGAFGHEEEVISNPLSPRVIQNIIYYKCNTHDEREAVIQQELVIHIGWIISNNPELFSGMLKIRIGWIIHAMEYELQIRGGDKPALDLYQLSPSEVKQLLLDILQPQQNGRCWLNRRQIDGSLNRTPTGFYDRVWQILERTPNGIIVAGKHLPQQPTLSDMTMYEMNFSLLVEDTLGNIDQPQYRQIVVELLMVVSIVLERNPELEFQDKVDLDRLVKEAFNEFQKDQSRLKEIEKQDDMTSFYNTPPLGKRGTCSYLTKAVMNLLLEGEVKPNNDDPCLIS
modifications: farnesyl group on Cys1090 (mass spectrometry; density in the cryo-EM maps); treated with λ-phosphatase
notes: phosphorylase kinase β-subunit, human, full length; domains D1-D5; Forms the central β4 homotetramer of the hexadecamer
stoichiometry N: 4
